Laboratory results taken from patent EP1899377B1.

Target: GST-human NOGO-A56 (human) (UniProt Q9NQC3)
Test: SPR (Biacore T100), reverse format: antibody captured on Protein A, human NOGO 5+6 GST as analyte, 1:1 model; mean (SD) of 5 or 6 runs

GST-human NOGO-A56 (human), sequence (Q9NQC3 586-785, form in doubt): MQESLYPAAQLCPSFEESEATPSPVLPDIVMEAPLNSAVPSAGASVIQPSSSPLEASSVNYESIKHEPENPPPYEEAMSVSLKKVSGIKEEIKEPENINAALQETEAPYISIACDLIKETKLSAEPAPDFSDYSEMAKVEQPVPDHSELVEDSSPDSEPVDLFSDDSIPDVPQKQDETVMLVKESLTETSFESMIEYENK

- Kd: 0.42 nM
- koff: 0.000117 s⁻¹
- kon: 285000 M⁻¹ s⁻¹
Substance: 11C7 (chimeric version) (antibody)
